Measured values published in article PMC8664124 (Journal of immunology (Baltimore, Md. : 1950), 2021).

Target: SARS-CoV-2 Spike (RBD)-Fc (SARS-CoV-2, UniProt P0DTC2)
Assay: ELISA

B1: wild type Spike S1-Interacting Domain of ACE2 Receptor (SPIDAR) peptide (peptide)
peptide: EDLFYQ
B1: binds.
